From patent US20210139548A1 (published 2021)
*1 amine or outer side, *2 acyl side, *3 side chain or, on linkers, in order; H or OH if unused. Side-chain parts run from the residue outwards. The star is where a group is joined. C18 diacid = O=C(O)CCCCCCCCCCCCCCCCC(=O)*; γGlu = O=C(O)[C@H](CCC(=O)[*:2])N[*:1]; Isovaleryl = CC(C)CC(=O)*; AEEA = NCCOCCOCC(=O)O

T1: human neuropeptide Y2 receptor (human, UniProt P49146 1-381)
T1 construct: whole, on cells; also called hNPY2 receptor; hNPY2-R
T1 sequence (looked up): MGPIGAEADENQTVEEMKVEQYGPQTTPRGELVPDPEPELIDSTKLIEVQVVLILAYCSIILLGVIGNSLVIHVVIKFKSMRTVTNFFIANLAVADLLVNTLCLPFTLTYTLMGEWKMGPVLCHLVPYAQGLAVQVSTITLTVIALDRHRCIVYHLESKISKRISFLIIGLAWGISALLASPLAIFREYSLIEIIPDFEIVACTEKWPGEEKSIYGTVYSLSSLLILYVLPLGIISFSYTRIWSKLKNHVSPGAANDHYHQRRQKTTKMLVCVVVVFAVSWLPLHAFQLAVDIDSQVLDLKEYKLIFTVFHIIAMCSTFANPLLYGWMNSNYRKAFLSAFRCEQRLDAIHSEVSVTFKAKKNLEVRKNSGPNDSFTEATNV


Molecular target: T1, human neuropeptide Y2 receptor
Assay: radioligand competition (125I-PYY(1-36)), hNPY2R membranes
Method in brief: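 Commercial human Y2 receptor membranes (0.5 μg protein/well) were incubated with peptide for 2 h at room temperature in 50 mM HEPES, 5 mM MgCl₂, 1 mM CaCl₂, pH 7.4, with 0.2% ovalbumin. Bound radioligand was separated on PEI-soaked GF/C filters and counted by scintillation, and IC₅₀ came from nonlinear sigmoidal regression.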

Row | Binder | Ki
1 | Isovaleryl-APEK([AEEA-AEEA-γGlu-C18 diacid])PEEDASPEELQQYYVELRHYYNWLTRQRY-NH2 (SMILES CC(C)CC(=O)N[C@@H](C)C(=O)N1CCC[C@H]1C(=O)N[C@@H](CCC(=O)O)C(=O)N[C@@H](CCCCNC(=O)COCCOCCNC(=O)COCCOCCNC(=O)CC[C@H](NC(=O)CCCCCCCCCCCCCCCCC(=O)O)C(=O)O)C(=O)N1CCC[C@H]1C(=O)N[C@@H](CCC(=O)O)C(=O)N[C@@H](CCC(=O)O)C(=O)N[C@@H](CC(=O)O)C(=O)N[C@@H](C)C(=O)N[C@@H](CO)C(=O)N1CCC[C@H]1C(=O)N[C@@H](CCC(=O)O)C(=O)N[C@@H](CCC(=O)O)C(=O)N[C@@H](CC(C)C)C(=O)N[C@@H](CCC(N)=O)C(=O)N[C@@H](CCC(N)=O)C(=O)N[C@@H](Cc1ccc(O)cc1)C(=O)N[C@@H](Cc1ccc(O)cc1)C(=O)N[C@H](C(=O)N[C@@H](CCC(=O)O)C(=O)N[C@@H](CC(C)C)C(=O)N[C@@H](CCCNC(=N)N)C(=O)N[C@@H](Cc1c[nH]cn1)C(=O)N[C@@H](Cc1ccc(O)cc1)C(=O)N[C@@H](Cc1ccc(O)cc1)C(=O)N[C@@H](CC(N)=O)C(=O)N[C@@H](Cc1c[nH]c2ccccc12)C(=O)N[C@@H](CC(C)C)C(=O)N[C@H](C(=O)N[C@@H](CCCNC(=N)N)C(=O)N[C@@H](CCC(N)=O)C(=O)N[C@@H](CCCNC(=N)N)C(=O)N[C@@H](Cc1ccc(O)cc1)C(N)=O)[C@@H](C)O)C(C)C) [Compound 49] | 0.89 nM
2 | Isovaleryl-APEK([AEEA-AEEA-γGlu-C18 diacid])PEADAEPEELQRYYVSLRHYYNWLTRQRY-NH2 (SMILES CC(C)CC(=O)N[C@@H](C)C(=O)N1CCC[C@H]1C(=O)N[C@@H](CCC(=O)O)C(=O)N[C@@H](CCCCNC(=O)COCCOCCNC(=O)COCCOCCNC(=O)CC[C@H](NC(=O)CCCCCCCCCCCCCCCCC(=O)O)C(=O)O)C(=O)N1CCC[C@H]1C(=O)N[C@@H](CCC(=O)O)C(=O)N[C@@H](C)C(=O)N[C@@H](CC(=O)O)C(=O)N[C@@H](C)C(=O)N[C@@H](CCC(=O)O)C(=O)N1CCC[C@H]1C(=O)N[C@@H](CCC(=O)O)C(=O)N[C@@H](CCC(=O)O)C(=O)N[C@@H](CC(C)C)C(=O)N[C@@H](CCC(N)=O)C(=O)N[C@@H](CCCNC(=N)N)C(=O)N[C@@H](Cc1ccc(O)cc1)C(=O)N[C@@H](Cc1ccc(O)cc1)C(=O)N[C@H](C(=O)N[C@@H](CO)C(=O)N[C@@H](CC(C)C)C(=O)N[C@@H](CCCNC(=N)N)C(=O)N[C@@H](Cc1c[nH]cn1)C(=O)N[C@@H](Cc1ccc(O)cc1)C(=O)N[C@@H](Cc1ccc(O)cc1)C(=O)N[C@@H](CC(N)=O)C(=O)N[C@@H](Cc1c[nH]c2ccccc12)C(=O)N[C@@H](CC(C)C)C(=O)N[C@H](C(=O)N[C@@H](CCCNC(=N)N)C(=O)N[C@@H](CCC(N)=O)C(=O)N[C@@H](CCCNC(=N)N)C(=O)N[C@@H](Cc1ccc(O)cc1)C(N)=O)[C@@H](C)O)C(C)C) [Compound 56] | 1.26 nM
3 | Isovaleryl-APEK([AEEA-AEEA-γGlu-C18 diacid])PEEDASPEEAQRYYVSLRHYYNWLTRQRY-NH2 (SMILES CC(C)CC(=O)N[C@@H](C)C(=O)N1CCC[C@H]1C(=O)N[C@@H](CCC(=O)O)C(=O)N[C@@H](CCCCNC(=O)COCCOCCNC(=O)COCCOCCNC(=O)CC[C@H](NC(=O)CCCCCCCCCCCCCCCCC(=O)O)C(=O)O)C(=O)N1CCC[C@H]1C(=O)N[C@@H](CCC(=O)O)C(=O)N[C@@H](CCC(=O)O)C(=O)N[C@@H](CC(=O)O)C(=O)N[C@@H](C)C(=O)N[C@@H](CO)C(=O)N1CCC[C@H]1C(=O)N[C@@H](CCC(=O)O)C(=O)N[C@@H](CCC(=O)O)C(=O)N[C@@H](C)C(=O)N[C@@H](CCC(N)=O)C(=O)N[C@@H](CCCNC(=N)N)C(=O)N[C@@H](Cc1ccc(O)cc1)C(=O)N[C@@H](Cc1ccc(O)cc1)C(=O)N[C@H](C(=O)N[C@@H](CO)C(=O)N[C@@H](CC(C)C)C(=O)N[C@@H](CCCNC(=N)N)C(=O)N[C@@H](Cc1c[nH]cn1)C(=O)N[C@@H](Cc1ccc(O)cc1)C(=O)N[C@@H](Cc1ccc(O)cc1)C(=O)N[C@@H](CC(N)=O)C(=O)N[C@@H](Cc1c[nH]c2ccccc12)C(=O)N[C@@H](CC(C)C)C(=O)N[C@H](C(=O)N[C@@H](CCCNC(=N)N)C(=O)N[C@@H](CCC(N)=O)C(=O)N[C@@H](CCCNC(=N)N)C(=O)N[C@@H](Cc1ccc(O)cc1)C(N)=O)[C@@H](C)O)C(C)C) [Compound 55] | 3.35 nM
4 | Isovaleryl-APEK([AEEA-AEEA-γGlu-C18 diacid])AEEEASPEELQRYYVSLRHYYNWLTRQRY-NH2 (SMILES CC(C)CC(=O)N[C@@H](C)C(=O)N1CCC[C@H]1C(=O)N[C@@H](CCC(=O)O)C(=O)N[C@@H](CCCCNC(=O)COCCOCCNC(=O)COCCOCCNC(=O)CC[C@H](NC(=O)CCCCCCCCCCCCCCCCC(=O)O)C(=O)O)C(=O)N[C@@H](C)C(=O)N[C@@H](CCC(=O)O)C(=O)N[C@@H](CCC(=O)O)C(=O)N[C@@H](CCC(=O)O)C(=O)N[C@@H](C)C(=O)N[C@@H](CO)C(=O)N1CCC[C@H]1C(=O)N[C@@H](CCC(=O)O)C(=O)N[C@@H](CCC(=O)O)C(=O)N[C@@H](CC(C)C)C(=O)N[C@@H](CCC(N)=O)C(=O)N[C@@H](CCCNC(=N)N)C(=O)N[C@@H](Cc1ccc(O)cc1)C(=O)N[C@@H](Cc1ccc(O)cc1)C(=O)N[C@H](C(=O)N[C@@H](CO)C(=O)N[C@@H](CC(C)C)C(=O)N[C@@H](CCCNC(=N)N)C(=O)N[C@@H](Cc1c[nH]cn1)C(=O)N[C@@H](Cc1ccc(O)cc1)C(=O)N[C@@H](Cc1ccc(O)cc1)C(=O)N[C@@H](CC(N)=O)C(=O)N[C@@H](Cc1c[nH]c2ccccc12)C(=O)N[C@@H](CC(C)C)C(=O)N[C@H](C(=O)N[C@@H](CCCNC(=N)N)C(=O)N[C@@H](CCC(N)=O)C(=O)N[C@@H](CCCNC(=N)N)C(=O)N[C@@H](Cc1ccc(O)cc1)C(N)=O)[C@@H](C)O)C(C)C) [Compound 51] | 39.4 nM
5 | Isovaleryl-APEK([AEEA-AEEA-γGlu-C18 diacid])PEEAASPEELEQYYVSLRHYYNWLTRQRY-NH2 (SMILES CC(C)CC(=O)N[C@@H](C)C(=O)N1CCC[C@H]1C(=O)N[C@@H](CCC(=O)O)C(=O)N[C@@H](CCCCNC(=O)COCCOCCNC(=O)COCCOCCNC(=O)CC[C@H](NC(=O)CCCCCCCCCCCCCCCCC(=O)O)C(=O)O)C(=O)N1CCC[C@H]1C(=O)N[C@@H](CCC(=O)O)C(=O)N[C@@H](CCC(=O)O)C(=O)N[C@@H](C)C(=O)N[C@@H](C)C(=O)N[C@@H](CO)C(=O)N1CCC[C@H]1C(=O)N[C@@H](CCC(=O)O)C(=O)N[C@@H](CCC(=O)O)C(=O)N[C@@H](CC(C)C)C(=O)N[C@@H](CCC(=O)O)C(=O)N[C@@H](CCC(N)=O)C(=O)N[C@@H](Cc1ccc(O)cc1)C(=O)N[C@@H](Cc1ccc(O)cc1)C(=O)N[C@H](C(=O)N[C@@H](CO)C(=O)N[C@@H](CC(C)C)C(=O)N[C@@H](CCCNC(=N)N)C(=O)N[C@@H](Cc1c[nH]cn1)C(=O)N[C@@H](Cc1ccc(O)cc1)C(=O)N[C@@H](Cc1ccc(O)cc1)C(=O)N[C@@H](CC(N)=O)C(=O)N[C@@H](Cc1c[nH]c2ccccc12)C(=O)N[C@@H](CC(C)C)C(=O)N[C@H](C(=O)N[C@@H](CCCNC(=N)N)C(=O)N[C@@H](CCC(N)=O)C(=O)N[C@@H](CCCNC(=N)N)C(=O)N[C@@H](Cc1ccc(O)cc1)C(N)=O)[C@@H](C)O)C(C)C) [Compound 60] | 5.95 nM
6 | Isovaleryl-APEK([AEEA-AEEA-γGlu-C18 diacid])AEEDASEEELQRYYVSLRHYYNWLTRQRY-NH2 (SMILES CC(C)CC(=O)N[C@@H](C)C(=O)N1CCC[C@H]1C(=O)N[C@@H](CCC(=O)O)C(=O)N[C@@H](CCCCNC(=O)COCCOCCNC(=O)COCCOCCNC(=O)CC[C@H](NC(=O)CCCCCCCCCCCCCCCCC(=O)O)C(=O)O)C(=O)N[C@@H](C)C(=O)N[C@@H](CCC(=O)O)C(=O)N[C@@H](CCC(=O)O)C(=O)N[C@@H](CC(=O)O)C(=O)N[C@@H](C)C(=O)N[C@@H](CO)C(=O)N[C@@H](CCC(=O)O)C(=O)N[C@@H](CCC(=O)O)C(=O)N[C@@H](CCC(=O)O)C(=O)N[C@@H](CC(C)C)C(=O)N[C@@H](CCC(N)=O)C(=O)N[C@@H](CCCNC(=N)N)C(=O)N[C@@H](Cc1ccc(O)cc1)C(=O)N[C@@H](Cc1ccc(O)cc1)C(=O)N[C@H](C(=O)N[C@@H](CO)C(=O)N[C@@H](CC(C)C)C(=O)N[C@@H](CCCNC(=N)N)C(=O)N[C@@H](Cc1c[nH]cn1)C(=O)N[C@@H](Cc1ccc(O)cc1)C(=O)N[C@@H](Cc1ccc(O)cc1)C(=O)N[C@@H](CC(N)=O)C(=O)N[C@@H](Cc1c[nH]c2ccccc12)C(=O)N[C@@H](CC(C)C)C(=O)N[C@H](C(=O)N[C@@H](CCCNC(=N)N)C(=O)N[C@@H](CCC(N)=O)C(=O)N[C@@H](CCCNC(=N)N)C(=O)N[C@@H](Cc1ccc(O)cc1)C(N)=O)[C@@H](C)O)C(C)C) [Compound 52] | 8.53 nM
